# Source: patent US20080300385A1
# Columns and labels:
# [1] = target: Tat protein from HIV-1 strain BH10 (HIV-1 strain BH10) (UniProt P69697); assay: SPR, kinetic experiment (FIG. 5B)
# [2] = target: Tat protein from HIV-1 strain BH10 (HIV-1 strain BH10) (UniProt P69697); assay: ITC in free solution (FIG. 7)
substance,measurement,setting,value
"gp140 Env protein from HIV-1 strain SF162 (o-gp140SF162), trimer (from UniProt P19550 32-675)",Kd,[1],37 nM
same,stoichiometry (Tat molecules per Env trimer) (Tat molecules per Env trimer),[2],3
